Results: patent US20240034757A1 (OXFORD UNIVERSITY INNOVATION, published 2024)
Read-outs that look alike come from different tables or passages of the source.

B1: CCL7_HUMAN (ligand)
chain: not shown
B2: P1128_IXORI (other)
chain: KDDEHFSVDYCGMNCTQQEDGSWTACSGRNEECRCYHESGKKNGLCLSTTYIDFSQYGNPSDSDIAAASPRP
B3: P1127_IXORI (other)
chain: AGKDDEHFSVDYCGMNCTQQEDGSWTACSGRNGECRCYHESGKRSGLCLSTTYIDFSEYGNLSDSDIAAASPRLSMKESH
B4: P1078_IXORI (other)
chain: GSKGSSAQQSSHDSIKAEFCETNCTMKTGGKWTQCHGGCFCVHVGNETVGRCIKLDGDYDYPSSKHEE
B5: P1074_IXORI (other)
chain: GSKESSAHQSSDDSIKAEFCDAKCTMKTDGKWTQCHGGCFCVHVGNETEGRCMRLDGDYDYPSTQPEE
B6: P942_IXORI (other)
chain: NQLSGPQSSANSNEAVFCDTNCTQGTDEAWSGCRGDCFCVYVGNSTEGRCMMLSGDFDYSTPGAED
B7: P675_IXORI (other)
chain: GSNQLSGPQSSANSNDAVFCDTNCTQGTDGAWSGCRGDCFCVHVGNSTEGRCIELIGDFDYSTPGAED
B8: P1174_IXORI (other)
chain: LNNENELFSVEYCGANCTQQDNGSWTKCKGNCTCYHEDGKRYGLCLSTEYTDFTQFPKPTSEEIADASPRPKETNSH
B9: P1168_IXORI (other)
chain: GQDTDGKEKSDEYELFTVEYCGTNCTQLENGSWTACTGKNGTCRCFHENDKKVGLCLSTEYTDFSEYPDPNSEEIKAASPLP
B10: P1080_IXORI (other)
chain: SAGSKGSSAPQSSGDSVVAEFCDTNCTMKKDGKWTECNGDCFCVHVGNETVGRCMRLDGDYDYTSSKTTRRNKKTRNGLCRLDRNRTTVDYPERNTREP
B11: P1101_IXORI (other)
chain: HTTVAGSDEDIEVSYCGMNCTVESGKSSKCSPDCVCVHEGNERDGICISITYLGDLGNPLEDPSIDLATPLAPVFQSSK

How the values were obtained:
[1] = biological target: T1, P985_AMBPA (Amblyomma parvum, UniProt A0A023FT45 25-132); experiment: BLI
T1 sequence: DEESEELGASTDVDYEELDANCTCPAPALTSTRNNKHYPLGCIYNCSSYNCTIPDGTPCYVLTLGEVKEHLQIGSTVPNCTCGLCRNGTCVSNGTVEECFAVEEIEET

[2] = biological target: T2, P1181_AMBMA (Amblyomma maculatum, UniProt G3MIX6 26-115); experiment: BLI
T2 sequence: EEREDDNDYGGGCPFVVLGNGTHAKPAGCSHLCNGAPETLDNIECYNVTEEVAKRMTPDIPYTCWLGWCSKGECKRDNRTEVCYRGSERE

[3] = biological target: T3, P467_RHIPU (Rhipicephalus pulchellus, UniProt L7M8Z8 22-127); experiment: BLI
T3 sequence: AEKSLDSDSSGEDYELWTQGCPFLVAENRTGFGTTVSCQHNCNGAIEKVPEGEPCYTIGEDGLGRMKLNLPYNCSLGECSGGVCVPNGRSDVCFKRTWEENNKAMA

[4] = biological target: T4, P974_AMBCA (Amblyomma cajennense, UniProt A0A023FDY8 22-118); experiment: BLI
T4 sequence: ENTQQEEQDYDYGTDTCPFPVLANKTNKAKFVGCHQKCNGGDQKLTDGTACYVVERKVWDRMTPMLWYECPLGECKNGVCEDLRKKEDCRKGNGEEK

[5] = biological target: T5, P991_AMBCA (Amblyomma cajennense, UniProt A0A023FFD0 29-136); experiment: BLI
T5 sequence: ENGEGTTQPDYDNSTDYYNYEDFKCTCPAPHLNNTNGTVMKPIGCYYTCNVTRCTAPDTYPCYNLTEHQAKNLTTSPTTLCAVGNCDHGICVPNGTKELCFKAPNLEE

[6] = biological target: T6, P546_AMBCA (Amblyomma cajennense, UniProt A0A023FBW7 22-118); experiment: BLI
T6 sequence: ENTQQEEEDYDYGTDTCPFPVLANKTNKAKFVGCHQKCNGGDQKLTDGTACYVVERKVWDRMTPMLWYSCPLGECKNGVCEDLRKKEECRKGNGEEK

[7] = biological target: T7, P1183_AMBTR (Amblyomma triste, UniProt A0A023G9N9 26-115); experiment: BLI
T7 sequence: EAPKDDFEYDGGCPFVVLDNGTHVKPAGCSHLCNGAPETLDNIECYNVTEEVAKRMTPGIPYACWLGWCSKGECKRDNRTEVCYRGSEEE

[8] = biological target: T8, P1243_AMBAM (Amblyomma americanum, UniProt A0A0C9S461 26-123); experiment: BLI
T8 sequence: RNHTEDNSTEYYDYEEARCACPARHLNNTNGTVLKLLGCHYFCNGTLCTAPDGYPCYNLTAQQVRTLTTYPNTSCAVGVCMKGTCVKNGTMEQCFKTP

[9] = biological target: T9, P672_RHIPU (Rhipicephalus pulchellus, UniProt L7MC74 22-125); experiment: BLI
T9 sequence: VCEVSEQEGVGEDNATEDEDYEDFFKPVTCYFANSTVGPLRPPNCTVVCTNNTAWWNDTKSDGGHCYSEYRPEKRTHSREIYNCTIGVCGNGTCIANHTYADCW

[10] = biological target: T10, P1180_AMBTR (Amblyomma triste, UniProt A0A023G6B6 26-116); experiment: BLI
T10 sequence: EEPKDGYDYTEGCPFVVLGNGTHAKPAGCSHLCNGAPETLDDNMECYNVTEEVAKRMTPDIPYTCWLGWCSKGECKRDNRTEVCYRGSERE

[11] = biological target: T11, P983_AMBCA (Amblyomma cajennense, UniProt A0A023FFB5 22-119); experiment: BLI
T11 sequence: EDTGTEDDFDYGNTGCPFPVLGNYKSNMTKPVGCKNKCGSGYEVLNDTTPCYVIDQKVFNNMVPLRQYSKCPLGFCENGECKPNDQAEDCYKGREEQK

[12] = biological target: T8, P1243_AMBAM; experiment: BLI; remark: listed apart in the source
[13] = biological target: T12, CXCL8_HUMAN (human, UniProt P10145 28-99); experiment: yeast surface display FACS re-test; further: test concentration or dose not given here
T12 sequence: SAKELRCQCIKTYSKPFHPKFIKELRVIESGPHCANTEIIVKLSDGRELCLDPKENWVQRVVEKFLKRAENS

[14] = biological target: T13, CXCL10_HUMAN (human, UniProt P02778 22-98); experiment: BLI
T13 sequence: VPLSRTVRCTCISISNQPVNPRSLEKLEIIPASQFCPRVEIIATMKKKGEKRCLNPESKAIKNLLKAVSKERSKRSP

[15] = biological target: CXCL12_HUMAN (human, UniProt P48061 22-89); experiment: BLI
CXCL12_HUMAN, sequence (P48061 22-89 limits assumed): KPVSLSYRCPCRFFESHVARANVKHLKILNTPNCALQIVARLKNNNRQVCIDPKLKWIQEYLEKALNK

[16] = biological target: T14, CXCL11_HUMAN (human, UniProt O14625 22-94); experiment: BLI
T14 sequence: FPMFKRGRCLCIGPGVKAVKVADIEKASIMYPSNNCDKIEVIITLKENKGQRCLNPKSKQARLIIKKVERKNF

[17] = biological target: T15, CXCL14_HUMAN (human, UniProt O95715 35-111); experiment: BLI
T15 sequence: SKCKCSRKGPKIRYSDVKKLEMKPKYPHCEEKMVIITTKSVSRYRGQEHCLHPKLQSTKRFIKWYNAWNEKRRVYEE

[18] = biological target: T16, CXCL13_HUMAN (human, UniProt O43927 23-109); experiment: BLI
T16 sequence: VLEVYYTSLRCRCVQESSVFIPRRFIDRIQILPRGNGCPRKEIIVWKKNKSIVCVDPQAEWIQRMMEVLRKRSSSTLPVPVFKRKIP

[19] = biological target: T17, CXCL9_HUMAN (human, UniProt Q07325 23-125); experiment: BLI
T17 sequence: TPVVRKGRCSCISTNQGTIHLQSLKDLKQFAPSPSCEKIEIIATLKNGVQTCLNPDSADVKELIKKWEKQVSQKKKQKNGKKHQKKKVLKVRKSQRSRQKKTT

[20] = biological target: T18, CXCL6_HUMAN (human, UniProt P80162 38-114); experiment: BLI [Cont.]
T18 sequence: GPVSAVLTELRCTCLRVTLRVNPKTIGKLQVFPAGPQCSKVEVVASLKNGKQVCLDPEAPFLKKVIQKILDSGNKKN

[21] = biological target: T14, CXCL11_HUMAN; experiment: yeast surface display FACS re-test; further: test concentration or dose not given here
[22] = biological target: T12, CXCL8_HUMAN; experiment: BLI [Cont.]
[23] = biological target: T19, CXCL4_HUMAN (human, UniProt P02776 32-101); experiment: BLI [Cont.]
T19 sequence: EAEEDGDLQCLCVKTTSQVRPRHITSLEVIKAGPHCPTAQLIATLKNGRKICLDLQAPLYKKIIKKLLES

[24] = biological target: T20, CXCL7_HUMAN (human, UniProt P02775 59-128); experiment: BLI [Cont.]
T20 sequence: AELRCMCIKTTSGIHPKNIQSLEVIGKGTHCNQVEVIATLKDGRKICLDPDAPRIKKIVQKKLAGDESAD

[25] = biological target: T13, CXCL10_HUMAN; experiment: yeast surface display FACS re-test; further: test concentration or dose not given here
[26] = biological target: T21, CXCL1_HUMAN (human, UniProt P09341 35-107); experiment: yeast surface display FACS re-test; further: test concentration or dose not given here
T21 sequence: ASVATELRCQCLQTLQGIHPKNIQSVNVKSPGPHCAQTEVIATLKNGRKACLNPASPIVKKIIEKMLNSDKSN

Binder | % cells over threshold fluorescence [13] [%] | binding result [15] | binding result [17] | binding result [18] | binding result [19] | % cells over threshold fluorescence [21] [%] | binding result [22] | binding result [24] | other results
B1 |  |  |  |  |  |  |  |  | Kd [1]: 61 nM; Kd [2]: 120 nM; Kd [3]: 2.15 nM; Kd [4]: 41.2 nM; Kd [5]: 0.514 nM; Kd [6]: 90 nM; Kd [7]: 5.4 nM; Kd [8]: 8.66 nM; Kd [9]: 16 nM; Kd [10]: 98 nM; Kd [11]: 32 nM; Kd [12]: 8.66 nM
B2 | 53 | no binding (tested: 300 nM) | no binding (tested: 300 nM) | no binding (tested: 300 nM) | no binding (tested: 300 nM) |  |  |  | binding result [14]: no binding (tested: 300 nM); binding result [16]: no binding (tested: 300 nM); binding result [20]: no binding (tested: 300 nM)
B3 | 43 | no binding (tested: 300 nM) |  | no binding (tested: 300 nM) | no binding (tested: 300 nM) |  |  |  | 
B4 |  | no binding (tested: 300 nM) | no binding (tested: 300 nM) |  | no binding (tested: 300 nM) | 38 | no binding (tested: 300 nM) | no binding (tested: 300 nM) | binding result [23]: no binding (tested: 300 nM)
B5 |  | no binding (tested: 300 nM) | no binding (tested: 300 nM) |  |  | 33 | no binding (tested: 300 nM) | no binding (tested: 300 nM) | % cells over threshold fluorescence [25]: 71%
B6 |  | no binding (tested: 300 nM) | no binding (tested: 300 nM) |  | no binding (tested: 300 nM) | 37 | no binding (tested: 300 nM) | no binding (tested: 300 nM) | 
B7 |  | no binding (tested: 300 nM) | no binding (tested: 300 nM) |  | no binding (tested: 300 nM) | 55 | no binding (tested: 300 nM) | no binding (tested: 300 nM) | 
B8 | 29 | no binding (tested: 300 nM) | no binding (tested: 300 nM) | no binding (tested: 300 nM) | no binding (tested: 300 nM) |  |  |  | binding result [14]: no binding (tested: 300 nM); binding result [20]: no binding (tested: 300 nM)
B9 | 24 | no binding (tested: 300 nM) |  | no binding (tested: 300 nM) | no binding (tested: 300 nM) |  |  |  | % cells over threshold fluorescence [26]: 66%
B10 |  |  |  |  |  | 45 |  |  | % cells over threshold fluorescence [25]: 70%
B11 |  |  |  |  |  |  |  |  | % cells over threshold fluorescence [25]: 75%
